In US10208121B2, “Anti-Axl antagonistic antibodies” (BERGEN TEKNOLOGIOVERFORING AS, priority 2014, dated 2019):
Entries after “also recorded” stand apart in the source; their conditions may differ.

T1: Mer (rhMer-Fc chimera) (Homo sapiens, UniProt Q12866)
T1 construct: Soluble recombinant antigens corresponding to the extracellular domains of members of the human TAM receptor family; purchased R&D Systems 891-MR
T1 sequence (Q12866 21-505 limits assumed): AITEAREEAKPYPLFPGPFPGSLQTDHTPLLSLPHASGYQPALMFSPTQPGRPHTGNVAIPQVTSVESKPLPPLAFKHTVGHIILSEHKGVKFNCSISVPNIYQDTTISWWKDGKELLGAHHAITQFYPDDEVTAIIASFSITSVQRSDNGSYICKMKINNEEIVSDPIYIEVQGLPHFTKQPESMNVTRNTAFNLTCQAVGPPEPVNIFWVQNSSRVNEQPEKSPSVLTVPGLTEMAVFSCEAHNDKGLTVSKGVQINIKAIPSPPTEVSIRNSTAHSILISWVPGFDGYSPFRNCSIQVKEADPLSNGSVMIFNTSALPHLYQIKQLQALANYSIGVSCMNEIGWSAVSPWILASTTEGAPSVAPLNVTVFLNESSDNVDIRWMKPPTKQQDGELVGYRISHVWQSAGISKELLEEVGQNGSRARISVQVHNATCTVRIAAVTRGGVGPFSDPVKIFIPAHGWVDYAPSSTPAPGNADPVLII

B1: 10C9: mouse anti-Axl monoclonal antibody from hybridoma UT-10C9-B9, IgG2b; VH SEQ ID NO: 3, VL SEQ ID NO: 4 (antibody, listed as Mus musculus, V domains shown)
VH: QVQLQQPGPELVKPGASVKISCKTSDYNFTRYYIHWVKQRPGQGLEWIGWIYPGTGDSKYNEKFKGRATLTADTSSSTAYMQLSSQTSEDSAVYFCARNGNYWYFDVWGAGTAVTVSS
VL: DIVMTQAAPSGPVTPGESVSISCRSSKSLLHSNGNTYLYWFLQRPGQSPQLLIYRMSNLASGVPDRFSGSGSGTAFTLRISRVEAEDVGIYYCMQHREYPFTFGGGTKLEIK
B2: 10G5: mouse anti-Axl monoclonal antibody from hybridoma WR-10G5-E5, IgG1; VH SEQ ID NO: 21, VL SEQ ID NO: 22 (antibody, listed as Mus musculus, V domains shown)
VH: QVQLQQSGAELVRPGASVKLSCKASGYSFTDFYINWVRQRPGQGLEWIARIFPGGDNTYYNEKFKGKATLTAEESSSTAYIQLSSLTSEDSAVYFCARRGLYYAMDYWGQGISVTVSS
VL: DVLMTQTPLSLPVSLGDQASISCRSSQSLVHSNGIPYLHWYLQKPGQSPKLLIYRVSNRFSGVPDRFSGSGSGTDFTLKISRVEAEDLGVYFCSQGTHVPPTFGGGTKLEIK

Tests used:
[1] = molecular target: T2, rhAxl-Fc (Homo sapiens, UniProt P30530); test: Biacore competitive binding study on rhAxl-Fc (two sample injection); settings: for competition for Axl binding with control antibody MAB154 / inhibition of Gas6 binding to Axl: rhAxl saturated with antibody; for competition for Axl binding with control antibody MAB154: then MAB154 at 25 μg/mL; for inhibition of Gas6 binding to Axl: then rhGas6 or rmGas6 at 25 μg/mL; for blocking of binding of the other antibody (10C9 / 10G5) to Axl: rhAxl saturated with first antibody, second antibody at 25 μg/mL
T2 construct: Soluble recombinant antigens corresponding to the extracellular domains of members of the human TAM receptor family; purchased R&D Systems 154-AL
Description: A competitive binding study was performed using Biacore 3000 instrument (GE Healthcare) and Binding Analysis wizard with several cycles of two samples injection. As a first sample, a saturating concentration of MAb 10C9 (790 nM or 120 μg/mL) or 10G5 (160 nM or 24 μg/mL) was injected over the surface of a CM5 sensor chip coated with rhAxl-Fc (using amine coupling) for 3 min at flow rate of 30 μL/min followed by 2.5 min stabilization (HBS-EP buffer alone) before the injection of the second sample. The following second samples were used: recombinant human (rh) Gas6 (R&D Systems, Cat. no. 885-GS), recombinant mouse (rm) Gas6 (R&D Systems, Cat. no. 986-GS/CF) and a panel of anti-Axl antibodies, such as MAB154 (R&D Systems, Cat. no. MAB154), 10C9 and 10G5; all at concentration 25 μg/mL. The second sample was injected for 3 min, followed by 2.5 min stabilization (buffer alone) and regeneration of the surface by 30 sec injection of a regeneration solution (10 mM HCl, 1 M NaCl) at flow rate 50 μL/min.

[2] = system: Axl^+ cells; test: Flow cytometry binding of hybridoma antibody clones to Axl+ cells; format: cell-based; settings: hybridoma clone selection
Description: For flow cytometry, the adherent cells in culture were washed with PBS, detached by trypsin (0.25%) treatment for 1 min and hitting culture dish for full detachment. Trypsin was quenched by adding into the tissue flask the complete medium followed by washing the cells with PBS. During the washing steps, the cells were collected by centrifugation at 200 g for 5 min. The antibody was diluted for total concentration in PBS containing 0.02% bovine serum albumin (BSA).
Cell staining was performed using 200 μL of cell suspension comprising 10^5 cells for 20 min at room temperature. After two washing steps with PBS/0.02% BSA, the cells were resuspended in 200 μL incubated with an APC-conjugated donkey anti-mouse IgG (H+L) secondary antibody (Jackson Laboratories, Cat. no. 715-136-150) at concentration 2 μg/mL for 20 min at room temperature. The stained cells were washed twice with PBS/0.02% BSA and kept on ice before analysis using a BD LSR Fortessa cell analyzer (BD Biosciences).

[3] = molecular target: T1, Mer (rhMer-Fc chimera); test: Biacore binding analysis on immobilized human Mer; settings: 10 μg/mL, 25° C.
Description: All binding experiments were performed using Biacore 3000 instrument (GE Healthcare) at 25° C. Soluble recombinant antigens corresponding to the extracellular domains of members of the human TAM receptor family, Axl (rhAxl-Fc chimera; R&D Systems, Cat. no. 154-AL), Mer (rhMer-Fc chimera; R&D Systems, Cat. no. 891-MR) and Tyro3 (rhTyro3/Dtk-Fc chimera; R&D Systems, Cat. no. 859-DK) were immobilized on the surface of CM5 sensor chip using amine coupling at the surface density of 393.0, 303.6 and 364.0 resonance units (RU), respectively. The Biacore run was performed in an automatic mode using Binding analysis wizard. Samples containing either MAb 10C9 or MAb 10G5 at concentration 10 μg/mL in HBS-EP buffer (GE Healthcare) were injected over the surfaces with immobilized antigens at flow rate of 30 μL/min for 3 min (association) followed by 5 min dissociation.

[4] = system: MDA-MB-231 cells; test: Treatment of established stellate-shaped 3D tumour masses; format: cell-based, human; settings: MDA-MB-231, 72 hours, versus control IgG
Description: Effect of anti-Axl antibodies 10C9 and 10G5 on established 3D organotypic tumour masses. The developed 9-days old stellate-shaped 3D organoid masses of human mammary carcinoma cells (MDA-MB-231) were treated with either control IgG or anti-Axl antibodies 10C9 and 10G5 for 72 hours. Images were captured using bright field; arrows indicate apoptotic, degrading stellate-shaped cells.
MDA-MB-231 cells were grown on extracellular matrix and allowed to form the highly aggressive stellate shaped morphology. Stellate-shaped tumour masses were then treated with the control IgG and antibodies 10C9 and 10G5, as described in EXAMPLE 7.

Molecule	competition for Axl binding with control antibody MAB154 [1]	inhibition of Gas6 binding to Axl [1]	blocking of binding of the other antibody (10C9 / 10G5) to Axl [1]	binding to Axl^+ cells in flow cytometry [2]	binding to human Mer [3]	binding to human Mer ([3]; listed as 1009)	effect on established stellate-shaped 3D tumour masses [4]
B1	did no inhibit; also recorded: did not compete	inhibit the binding of Axl to its ligand Gas6; also recorded: cannot be bound; also recorded: inhibited Axl binding by its ligand Gas6	cannot be bound; also recorded: blocked binding of each other	specific binding	no binding	no significant binding	degradation of stellate patterns
B2	did not compete	inhibit the binding of Axl to its ligand Gas6; also recorded: inhibited Axl binding by its ligand Gas6	blocked binding of each other	specific binding	no significant binding		degradation of stellate patterns
